The source of these data is article PMC4706430.

This experiment has as its target Elastase (human neutrophil elastase) (human) (UniProt P08246).

Chain of Elastase (human neutrophil elastase) (human) (P08246 30-267): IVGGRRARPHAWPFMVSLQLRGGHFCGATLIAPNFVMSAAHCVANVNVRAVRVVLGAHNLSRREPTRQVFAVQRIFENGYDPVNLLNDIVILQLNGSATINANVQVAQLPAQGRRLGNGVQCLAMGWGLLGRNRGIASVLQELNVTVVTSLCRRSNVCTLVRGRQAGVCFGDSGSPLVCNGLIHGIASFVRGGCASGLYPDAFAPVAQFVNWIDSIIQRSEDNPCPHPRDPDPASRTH

For the substance Boophilin (natural protein), the cleavage of TFPI (1 μg) by elastase (0.8 μg/mL) with Boophilin 0-3 μM, SDS-PAGE (Fig 4D) worked out at 20%.
